In doi:10.1101/2025.09.14.676084, “A validated antibody toolbox for ALS research” (bioRxiv, 2025):

Molecular target: T1, PFN1 (Homo sapiens (assumed; ALS risk gene …, UniProt P07737)
T1 construct: PFN1, the protein encoded by the ALS risk gene PFN1; Surmised: endogenous protein in the lysate of a human cell line, as in the YCharOS workflow; also called profilin-1 (protein encoded by the ALS risk gene PFN1)
Assay: immunoprecipitation, detected by immunoblot; the antibody was used to immunoprecipitate its target; counted as successful when the target protein was specifically enriched relative to the starting material, confirmed by immunoblot of the immunoprecipitated protein
Settings: one partner purified

T1 sequence (P07737 whole entry): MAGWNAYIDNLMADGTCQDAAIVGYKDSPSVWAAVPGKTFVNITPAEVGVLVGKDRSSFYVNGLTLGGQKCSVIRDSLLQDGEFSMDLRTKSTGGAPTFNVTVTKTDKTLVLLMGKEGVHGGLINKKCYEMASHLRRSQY

B1: scFv against PFN1 (recombinant single-chain variable fragment antibody generated by the Structural Genomics Consortium) (scFv, V domains shown)
VH: EVQLLESGGGLVQPGGSLRLSCAASGFTFYSSYMYWVRQAPGKGLEWVSSISGYGGYTYYADSVKGRFTISRDNSKNTLYLQMNSLRAEDTAVYYCARWDGYMDYWGQGTLVTVSS
VL: DIQMTQSPSSLSASVGDRVTITCRASQSISSYLNWYQQKPGKAPKLLIYAASSLQSGVPSRFSGSGSGTDFTLTISSLQPEDFATYYCQQYWDYGLPTFGQGTKLEIK
notes: selected by phage display against recombinant biotinylated antigen; plasmid deposited at Addgene (id not given); also called the scFv against PFN1; custom scFv antibody
binding result: binds
